Measurements reported in patent publication EP3821250B1.

Legend:
[1] = target: anti-A2M antibody (MAB) labeled with a donor fluorophore; assay: TR-FRET competition against acceptor-labeled A2M; A2M calibrator 200 ug/mL; mean of 4 replicates (FIG. 2G)
[2] = target: anti-A2M antibody (MAB) labeled with a donor fluorophore; assay: TR-FRET competition against acceptor-labeled A2M; A2M calibrator 500 ug/mL; mean of 4 replicates (FIG. 2G)
[3] = target: anti-A2M antibody (MAB) labeled with a donor fluorophore; assay: TR-FRET competition against acceptor-labeled A2M; A2M calibrator 1000 ug/mL; mean of 4 replicates (FIG. 2G)
[4] = target: anti-A2M antibody (MAB) labeled with a donor fluorophore; assay: TR-FRET competition against acceptor-labeled A2M; A2M calibrator 2000 ug/mL; mean of 4 replicates (FIG. 2G)
[5] = target: anti-A2M antibody (MAB) labeled with a donor fluorophore; assay: TR-FRET competition against acceptor-labeled A2M; A2M calibrator 4000 ug/mL; mean of 4 replicates (FIG. 2G)
[6] = target: anti-A2M antibody (MAB) labeled with a donor fluorophore; assay: TR-FRET competition against acceptor-labeled A2M; A2M calibrator 0 ug/mL, reference; mean of 4 replicates (FIG. 2G)
[7] = target: anti-A2M antibody (MAB) labeled with a donor fluorophore; assay: TR-FRET competition against acceptor-labeled A2M in whole blood, singleplex calibrators, 5 min; A2M 200 ug/mL (FIG. 2I)
[8] = target: anti-A2M antibody (MAB) labeled with a donor fluorophore; assay: TR-FRET competition against acceptor-labeled A2M in whole blood, singleplex calibrators, 5 min; A2M 500 ug/mL (FIG. 2I)
[9] = target: anti-A2M antibody (MAB) labeled with a donor fluorophore; assay: TR-FRET competition against acceptor-labeled A2M in whole blood, singleplex calibrators, 30 min; A2M 200 ug/mL (FIG. 2I)
[10] = target: anti-A2M antibody (MAB) labeled with a donor fluorophore; assay: TR-FRET competition against acceptor-labeled A2M in whole blood, singleplex calibrators, 30 min; A2M 500 ug/mL (FIG. 2I)
[11] = target: anti-A2M antibody (MAB) labeled with a donor fluorophore; assay: TR-FRET competition against acceptor-labeled A2M in whole blood, singleplex calibrators, 5 min; A2M 1000 ug/mL (FIG. 2I)
[12] = target: anti-A2M antibody (MAB) labeled with a donor fluorophore; assay: TR-FRET competition against acceptor-labeled A2M in whole blood, singleplex calibrators, 5 min; A2M 2000 ug/mL (FIG. 2I)
[13] = target: anti-A2M antibody (MAB) labeled with a donor fluorophore; assay: TR-FRET competition against acceptor-labeled A2M in whole blood, singleplex calibrators, 5 min; A2M 4000 ug/mL (FIG. 2I)
[14] = target: anti-A2M antibody (MAB) labeled with a donor fluorophore; assay: TR-FRET competition against acceptor-labeled A2M in whole blood, singleplex calibrators, 30 min; A2M 1000 ug/mL (FIG. 2I)
[15] = target: anti-A2M antibody (MAB) labeled with a donor fluorophore; assay: TR-FRET competition against acceptor-labeled A2M in whole blood, singleplex calibrators, 30 min; A2M 2000 ug/mL (FIG. 2I)
[16] = target: anti-A2M antibody (MAB) labeled with a donor fluorophore; assay: TR-FRET competition against acceptor-labeled A2M in whole blood, singleplex calibrators, 30 min; A2M 4000 ug/mL (FIG. 2I)
[17] = target: anti-A2M antibody (MAB) labeled with a donor fluorophore; assay: TR-FRET competition against acceptor-labeled A2M in whole blood, multiplex calibrators, 5 min; A2M 0 ug/mL, reference (FIG. 2I)
[18] = target: anti-A2M antibody (MAB) labeled with a donor fluorophore; assay: TR-FRET competition against acceptor-labeled A2M in whole blood, multiplex calibrators, 30 min; A2M 0 ug/mL, reference (FIG. 2I)
[19] = target: anti-A2M antibody (MAB) labeled with a donor fluorophore; assay: TR-FRET competition against acceptor-labeled A2M in whole blood, singleplex calibrators, 5 min; A2M 0 ug/mL, reference (FIG. 2I)
[20] = target: anti-A2M antibody (MAB) labeled with a donor fluorophore; assay: TR-FRET competition against acceptor-labeled A2M in whole blood, singleplex calibrators, 30 min; A2M 0 ug/mL, reference (FIG. 2I)
[21] = target: anti-A2M antibody (MAB) labeled with a donor fluorophore; assay: TR-FRET competition against acceptor-labeled A2M in whole blood, multiplex calibrators (VCAM-1 + A2M), 5 min; A2M 200 ug/mL (FIG. 2I)
[22] = target: anti-A2M antibody (MAB) labeled with a donor fluorophore; assay: TR-FRET competition against acceptor-labeled A2M in whole blood, multiplex calibrators (VCAM-1 + A2M), 5 min; A2M 500 ug/mL (FIG. 2I)
[23] = target: anti-A2M antibody (MAB) labeled with a donor fluorophore; assay: TR-FRET competition against acceptor-labeled A2M in whole blood, multiplex calibrators (VCAM-1 + A2M), 30 min; A2M 200 ug/mL (FIG. 2I)
[24] = target: anti-A2M antibody (MAB) labeled with a donor fluorophore; assay: TR-FRET competition against acceptor-labeled A2M in whole blood, multiplex calibrators (VCAM-1 + A2M), 30 min; A2M 500 ug/mL (FIG. 2I)
[25] = target: anti-A2M antibody (MAB) labeled with a donor fluorophore; assay: TR-FRET competition against acceptor-labeled A2M in whole blood, multiplex calibrators (VCAM-1 + A2M), 5 min; A2M 1000 ug/mL (FIG. 2I)
[26] = target: anti-A2M antibody (MAB) labeled with a donor fluorophore; assay: TR-FRET competition against acceptor-labeled A2M in whole blood, multiplex calibrators (VCAM-1 + A2M), 5 min; A2M 2000 ug/mL (FIG. 2I)
[27] = target: anti-A2M antibody (MAB) labeled with a donor fluorophore; assay: TR-FRET competition against acceptor-labeled A2M in whole blood, multiplex calibrators (VCAM-1 + A2M), 5 min; A2M 4000 ug/mL (FIG. 2I)
[28] = target: anti-A2M antibody (MAB) labeled with a donor fluorophore; assay: TR-FRET competition against acceptor-labeled A2M in whole blood, multiplex calibrators (VCAM-1 + A2M), 30 min; A2M 1000 ug/mL (FIG. 2I)
[29] = target: anti-A2M antibody (MAB) labeled with a donor fluorophore; assay: TR-FRET competition against acceptor-labeled A2M in whole blood, multiplex calibrators (VCAM-1 + A2M), 30 min; A2M 2000 ug/mL (FIG. 2I)
[30] = target: anti-A2M antibody (MAB) labeled with a donor fluorophore; assay: TR-FRET competition against acceptor-labeled A2M in whole blood, multiplex calibrators (VCAM-1 + A2M), 30 min; A2M 4000 ug/mL (FIG. 2I)

Substance: A2M (alpha-2-macroglobulin), unlabeled analyte / calibrator
- F/B Mean [1]: 0.905
- F/B Mean [2]: 0.795
- F/B Mean [3]: 0.666
- F/B Mean [4]: 0.532
- F/B Mean [5]: 0.393
- F/B Mean [6]: 1
- FRET signal relative to zero calibrator (quantity not given) [7]: 0.88
- FRET signal relative to zero calibrator (quantity not given) [8]: 0.72
- FRET signal relative to zero calibrator (quantity not given) [9]: 0.88
- FRET signal relative to zero calibrator (quantity not given) [10]: 0.71
- FRET signal relative to zero calibrator (quantity not given) [11]: 0.58
- FRET signal relative to zero calibrator (quantity not given) [12]: 0.43
- FRET signal relative to zero calibrator (quantity not given) [13]: 0.33
- FRET signal relative to zero calibrator (quantity not given) [14]: 0.59
- FRET signal relative to zero calibrator (quantity not given) [15]: 0.43
- FRET signal relative to zero calibrator (quantity not given) [16]: 0.33
- FRET signal relative to zero calibrator (quantity not given) [17]: 1
- FRET signal relative to zero calibrator (quantity not given) [18]: 1
- FRET signal relative to zero calibrator (quantity not given) [19]: 1
- FRET signal relative to zero calibrator (quantity not given) [20]: 1
- FRET signal relative to zero calibrator (quantity not given) [21]: 0.83
- FRET signal relative to zero calibrator (quantity not given) [22]: 0.71
- FRET signal relative to zero calibrator (quantity not given) [23]: 0.87
- FRET signal relative to zero calibrator (quantity not given) [24]: 0.74
- FRET signal relative to zero calibrator (quantity not given) [25]: 0.58
- FRET signal relative to zero calibrator (quantity not given) [26]: 0.45
- FRET signal relative to zero calibrator (quantity not given) [27]: 0.34
- FRET signal relative to zero calibrator (quantity not given) [28]: 0.56
- FRET signal relative to zero calibrator (quantity not given) [29]: 0.45
- FRET signal relative to zero calibrator (quantity not given) [30]: 0.33
